From patent publication US20100260668A1 (published 2010)

Legend:
recombinant human HGF = target: T1, recombinant human HGF (human, UniProt P14210 32-728); test: competition ELISA: DVD-Ig co-incubated with 2 nM soluble c-Met Fc on coated HGF (competitor c-Met Fc)
T1 construct: The target there is entered as this HGF; also called hepatocyte growth factor

[1] = target: T2, VEGF (VEGF 1-165 aa, R&D Systems 293-VE-010) (UniProt P15692 27-191); test: Direct bind ELISA, VEGF coated on plate; VEGF domain C-term., HC short/LC short
T2 construct: bought reagent; also called vascular endothelial growth factor
T2 sequence (P15692 other isoform, or with tags, fused parts or gaps limits assumed): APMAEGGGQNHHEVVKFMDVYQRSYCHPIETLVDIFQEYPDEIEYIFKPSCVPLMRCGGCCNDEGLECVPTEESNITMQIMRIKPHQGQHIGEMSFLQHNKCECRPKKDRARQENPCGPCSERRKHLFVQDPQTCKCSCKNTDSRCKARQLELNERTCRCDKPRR

[2] = target: T2, VEGF (VEGF 1-165 aa, R&D Systems …); test: Direct bind ELISA, VEGF coated on plate; VEGF domain N-term., HC short/LC short
[3] = target: T2, VEGF (VEGF 1-165 aa, R&D Systems …); test: Direct bind ELISA, VEGF coated on plate; VEGF domain C-term., HC long/LC long
[4] = target: T2, VEGF (VEGF 1-165 aa, R&D Systems …); test: Direct bind ELISA, VEGF coated on plate; VEGF domain C-term., HC long/LC short
[5] = target: T2, VEGF (VEGF 1-165 aa, R&D Systems …); test: Direct bind ELISA, VEGF coated on plate; VEGF domain N-term., HC long/LC short

T1 sequence (P14210 32-728 limits assumed): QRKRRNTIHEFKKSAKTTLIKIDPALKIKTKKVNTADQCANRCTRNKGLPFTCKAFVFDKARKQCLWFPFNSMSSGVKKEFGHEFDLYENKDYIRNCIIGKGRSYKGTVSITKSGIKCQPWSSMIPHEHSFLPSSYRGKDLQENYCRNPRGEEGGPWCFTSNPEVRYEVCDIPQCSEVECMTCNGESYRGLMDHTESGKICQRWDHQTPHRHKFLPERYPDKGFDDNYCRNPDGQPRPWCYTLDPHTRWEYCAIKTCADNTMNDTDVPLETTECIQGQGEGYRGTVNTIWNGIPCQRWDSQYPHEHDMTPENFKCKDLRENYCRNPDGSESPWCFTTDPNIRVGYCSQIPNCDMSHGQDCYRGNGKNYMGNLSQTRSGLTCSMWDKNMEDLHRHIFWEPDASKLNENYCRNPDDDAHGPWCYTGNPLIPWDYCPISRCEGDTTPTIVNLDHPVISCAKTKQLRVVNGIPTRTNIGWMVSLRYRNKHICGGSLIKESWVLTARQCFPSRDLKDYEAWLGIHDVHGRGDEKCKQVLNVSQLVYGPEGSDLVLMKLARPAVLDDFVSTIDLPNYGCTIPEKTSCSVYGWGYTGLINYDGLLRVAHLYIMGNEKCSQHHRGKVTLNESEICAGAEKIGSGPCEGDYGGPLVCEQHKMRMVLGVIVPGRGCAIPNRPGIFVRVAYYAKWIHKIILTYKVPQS

B1: DVD034 (HGF (seq. 1) N-terminal / RON (seq. 1) C-terminal DVD-Ig) (bispecific antibody, human IgG1, kappa)
heavy: not shown
light: DIQMTQSPSSVSASVGDRVTITCRASQGISSWLAWYQQKPGKAPNLLIYEASSLQSGVPSRFGGSGSGTDFTLTISSLQPEDFATYYCQQANGFPWTFGQGTKVEIKRTVAAPDVVMTQSPLSLPVTPGEPASISCRSSQSLLHSNGFNYVDWYLQKPGQSPHLLIYFGSYRASGVPDRFSGSGSGTDFTLKISRVEAEDVGVYYCMQALQTPPWTFGQGTKVEIRRTVAAPSVFIFPPSDEQLKSGTASVVCLLNNFYPREAKVQWKVDNALQSGNSQESVTEQDSKDSTYSLSSTLTLSKADYEKHKVYACEVTHQGLSSPVTKSFNRGEC
notes: also called DVD034H/DVD034L
**Q.** For B1, which IC50 (recombinant human HGF) is on record?
**A.** Its IC50 is 0.34 nM.

B2: DVD513 (bispecific antibody, human IgG1, kappa)
heavy: not shown
light: QAVVTQESALTTSPGETVTLTCRSSTGAVTTSNYANWVQEKPDHLFTGLIGGTNNRAPGVPARFSGSLIGDKAALTITGAQTEDEAIYFCALWYSNHWVFGGGTKLTVLGQPKAAPDIQMTQSPSSLSASVGDRVTITCRASQDVSTAVAWYQQKPGKAPKLLIYSASFLYSGVPSRFSGSGSGTDFTLTISSLQPEDFATYYCQQSYTTPPTFGQGTKVEIKRTVAAPSVFIFPPSDEQLKSGTASVVCLLNNFYPREAKVQWKVDNALQSGNSQESVTEQDSKDSTYSLSSTLTLSKADYEKHKVYACEVTHQGLSSPVTKSFNRGEC
notes: DVD-Ig; N-term; AB073 (DLL4), C-term; AB070 (VEGF); HC linker short, LC linker short; also called DVD-Ig DVD513; DVD513H/DVD513L
**Q.** For B2, which EC50 [1] is on record?
**A.** The EC50 was 58.5 nM.

B3: DVD514 (bispecific antibody, human IgG1, lambda)
heavy: not shown
light: DIQMTQSPSSLSASVGDRVTITCRASQDVSTAVAWYQQKPGKAPKLLIYSASFLYSGVPSRFSGSGSGTDFTLTISSLQPEDFATYYCQQSYTTPPTFGQGTKVEIKRTVAAPQAVVTQESALTTSPGETVTLTCRSSTGAVTTSNYANWVQEKPDHLFTGLIGGTNNRAPGVPARFSGSLIGDKAALTITGAQTEDEAIYFCALWYSNHWVFGGGTKLTVLGQPKAAPSVTLFPPSSEELQANKATLVCLISDFYPGAVTVAWKADSSPVKAGVETTTPSKQSNNKYAASSYLSLTPEQWKSHRSYSCQVTHEGSTVEKTVAPTECS
notes: DVD-Ig; N-term; AB070 (VEGF), C-term; AB073 (DLL4); HC linker short, LC linker short; also called DVD-Ig DVD514; DVD514H/DVD514L
**Q.** With B3 as the binder, how does the EC50 [2] read?
**A.** Its EC50 is 67.4 nM.

B4: DVD519 (bispecific antibody, human IgG1, kappa, lambda)
heavy: not shown
light: QAVVTQESALTTSPGETVTLTCRSSTGAVTTSNYANWVQEKPDHLFTGLIGGTNNRAPGVPARFSGSLIGDKAALTITGAQTEDEAIYFCALWYSNHWVFGGGTKLTVLGQPKAAPSVTLFPPDIQMTQSPSSLSASVGDRVTITCRASQDVSTAVAWYQQKPGKAPKLLIYSASFLYSGVPSRFSGSGSGTDFTLTISSLQPEDFATYYCQQSYTTPPTFGQGTKVEIKRTVAAPSVFIFPPSDEQLKSGTASVVCLLNNFYPREAKVQWKVDNALQSGNSQESVTEQDSKDSTYSLSSTLTLSKADYEKHKVYACEVTHQGLSSPVTKSFNRGEC
notes: DVD-Ig; N-term; AB073 (DLL4), C-term; AB070 (VEGF); HC linker long, LC linker long; also called DVD-Ig DVD519; DVD519H/DVD519L
**Q.** With B4 as the binder, how does the EC50 [3] read?
**A.** The EC50 was 77.2 nM.

B5: DVD525 (bispecific antibody, human IgG1, kappa)
heavy: not shown
light: QAVVTQESALTTSPGETVTLTCRSSTGAVTTSNYANWVQEKPDHLFTGLIGGTNNRAPGVPARFSGSLIGDKAALTITGAQTEDEAIYFCALWYSNHWVFGGGTKLTVLGQPKAAPDIQMTQSPSSLSASVGDRVTITCRASQDVSTAVAWYQQKPGKAPKLLIYSASFLYSGVPSRFSGSGSGTDFTLTISSLQPEDFATYYCQQSYTTPPTFGQGTKVEIKRTVAAPSVFIFPPSDEQLKSGTASVVCLLNNFYPREAKVQWKVDNALQSGNSQESVTEQDSKDSTYSLSSTLTLSKADYEKHKVYACEVTHQGLSSPVTKSFNRGEC
notes: DVD-Ig; N-term; AB073 (DLL4), C-term; AB070 (VEGF); HC linker long, LC linker short; also called DVD-Ig DVD525; DVD525H/DVD525L
**Q.** With B5 as the binder, how does the EC50 [4] read?
**A.** The EC50 was 21.8 nM.

B6: DVD526 (bispecific antibody, human IgG1, lambda)
heavy: not shown
light: DIQMTQSPSSLSASVGDRVTITCRASQDVSTAVAWYQQKPGKAPKLLIYSASFLYSGVPSRFSGSGSGTDFTLTISSLQPEDFATYYCQQSYTTPPTFGQGTKVEIKRTVAAPQAVVTQESALTTSPGETVTLTCRSSTGAVTTSNYANWVQEKPDHLFTGLIGGTNNRAPGVPARFSGSLIGDKAALTITGAQTEDEAIYFCALWYSNHWVFGGGTKLTVLGQPKAAPSVTLFPPSSEELQANKATLVCLISDFYPGAVTVAWKADSSPVKAGVETTTPSKQSNNKYAASSYLSLTPEQWKSHRSYSCQVTHEGSTVEKTVAPTECS
notes: DVD-Ig; N-term; AB070 (VEGF), C-term; AB073 (DLL4); HC linker long, LC linker short; also called DVD-Ig DVD526; DVD526H/DVD526L
**Q.** B6 was tested. Which EC50 [5] did it give?
**A.** The EC50 was 96.2 nM.

B7: DVD491 (bispecific antibody, human IgG1, kappa)
heavy: not shown
light: DIQMTQSSSYLSVSLGGRVTITCKASDHINNWLAWYQQKPGNAPRLLISGATSLETGVPSRFSGSGSGKDYTLSITSLQTEDVATYYCQQYWSIPLTFGAGTKLELKRTVAAPDIQMTQSPSSLSASVGDRVTITCRASQVIRRSLAWYQQKPGKAPKLLIYAASNLASGVPSRFSGSGSGTDFTLTISSLQPEDFATYYCQQSNTSPLTFGQGTKVEIKRTVAAPSVFIFPPSDEQLKSGTASVVCLLNNFYPREAKVQWKVDNALQSGNSQESVTEQDSKDSTYSLSSTLTLSKADYEKHKVYACEVTHQGLSSPVTKSFNRGEC
notes: DVD-Ig; N-term; AB072 (DLL4), C-term; AB071 (VEGF); HC linker short, LC linker short; also called DVD-Ig DVD491; DVD491H/DVD491L
**Q.** How did the EC50 [1] turn out when B7 was run?
**A.** Its EC50 is 1250 nM.
